# According to the Immune Epitope Database (IEDB):
# pKd: −log10 of the molar value.
# Assays:
# HLA-A*01:01 = assay: IEDB peptide-MHC binding, purified MHC/direct/fluorescence; filed as Kd, often an IC50 or EC50 that approximates it; ≥ and ≤ were set here for values at or beyond the usual limits of such assays; settings: source organism: Giardia lamblia ATCC 50803
# HLA-A*03:01 [1] = assay: as above; settings: source organism: Giardia lamblia ATCC 50803
# HLA-A*11:01 = assay: as above; settings: source organism: Giardia lamblia ATCC 50803
# HLA-A*26:01 = assay: as above; settings: source organism: Giardia lamblia ATCC 50803
# HLA-A*31:01 = assay: as above; settings: source organism: Giardia lamblia ATCC 50803
# HLA-A*69:01 = assay: as above; settings: source organism: Giardia lamblia ATCC 50803
# HLA-B*07:02 = assay: as above; settings: source organism: Giardia lamblia ATCC 50803
# HLA-B*08:01 = assay: as above; settings: source organism: Giardia lamblia ATCC 50803
# HLA-B*15:01 = assay: as above; settings: source organism: Giardia lamblia ATCC 50803
# HLA-B*27:05 = assay: as above; settings: source organism: Giardia lamblia ATCC 50803
# HLA-B*40:01 [2] = assay: as above; settings: source organism: Giardia lamblia ATCC 50803
# HLA-B*44:02 [3] = assay: as above; settings: source organism: Giardia lamblia ATCC 50803
# HLA-B*58:01 = assay: as above; settings: source organism: Giardia lamblia ATCC 50803
# HLA-B*46:01 = assay: IEDB peptide-MHC binding, purified MHC/competitive/fluorescence; filed as Kd, often an IC50 or EC50 that approximates it; ≥ and ≤ were set here for values at or beyond the usual limits of such assays; settings: source organism: Giardia lamblia ATCC 50803
# HLA-B*18:01 = assay: IEDB peptide-MHC binding, purified MHC/competitive/radioactivity; filed as Kd, often an IC50 or EC50 that approximates it; ≥ and ≤ were set here for values at or beyond the usual limits of such assays
# HLA-B*40:01 [4] = assay: as above
# HLA-B*40:02 = assay: as above
# HLA-B*44:02 [5] = assay: as above
# HLA-B*44:03 = assay: as above
# HLA-B*45:01 = assay: as above
# HLA-A*02:01 = assay: IEDB peptide-MHC binding, purified MHC/direct/fluorescence; filed as Kd, often an IC50 or EC50 that approximates it; ≥ and ≤ were set here for values at or beyond the usual limits of such assays; settings: source organism: Giardia lamblia ATCC 50803
# HLA-A*03:01 [6] = assay: IEDB peptide-MHC binding, purified MHC/competitive/fluorescence; filed as Kd, often an IC50 or EC50 that approximates it; ≥ and ≤ were set here for values at or beyond the usual limits of such assays; settings: source organism: Influenza A virus (A/Puerto Rico/8/1934(H1N1))
# [7] = source organism: SARS coronavirus Tor2
# [8] = source organism: Mammarenavirus guanaritoense
# [9] = source organism: Lymphocytic choriomeningitis virus (strain Armstrong)
sequence,measurement,setting,value
AAFLDDNAF,pKd,HLA-A*01:01,≤ 4.70
same,pKd,HLA-A*03:01 [1],≤ 4.70
same,pKd,HLA-A*11:01,≤ 4.70
same,pKd,HLA-A*26:01,≤ 4.70
same,pKd,HLA-A*31:01,≤ 4.70
same,pKd,HLA-A*69:01,≤ 4.70
same,pKd,HLA-B*07:02,≤ 4.70
same,pKd,HLA-B*08:01,≤ 4.70
same,pKd,HLA-B*15:01,6.97
same,pKd,HLA-B*27:05,≤ 4.70
same,pKd,HLA-B*40:01 [2],≤ 4.70
same,pKd,HLA-B*44:02 [3],≤ 4.70
same,pKd,HLA-B*58:01,≤ 4.70
same,pKd,HLA-B*46:01,6.93
AEAAVKPLL,pKd,HLA-B*18:01; [7],≤ 4.11
same,pKd,HLA-B*40:01 [4]; [7],8.07
same,pKd,HLA-B*40:02; [7],4.71
same,pKd,HLA-B*44:02 [5]; [7],7.22
same,pKd,HLA-B*44:03; [7],7.27
same,pKd,HLA-B*45:01; [7],6.82
AEAYCTGML,pKd,HLA-B*18:01; [8],≤ 4.11
same,pKd,HLA-B*40:01 [4]; [8],6.94
same,pKd,HLA-B*40:02; [8],6.95
same,pKd,HLA-B*44:02 [5]; [8],6.74
same,pKd,HLA-B*44:03; [8],6.46
same,pKd,HLA-B*45:01; [8],5.86
AEFWDVFLS,pKd,HLA-A*01:01,≤ 4.70
same,pKd,HLA-A*02:01,≤ 4.70
same,pKd,HLA-A*03:01 [1],≤ 4.70
same,pKd,HLA-A*11:01,≤ 4.70
same,pKd,HLA-A*26:01,≤ 4.70
same,pKd,HLA-A*31:01,≤ 4.70
same,pKd,HLA-A*69:01,≤ 4.70
same,pKd,HLA-B*07:02,≤ 4.70
same,pKd,HLA-B*08:01,≤ 4.70
same,pKd,HLA-B*15:01,≤ 4.70
same,pKd,HLA-B*27:05,≤ 4.70
same,pKd,HLA-B*40:01 [2],7.30
same,pKd,HLA-B*44:02 [3],≤ 4.70
same,pKd,HLA-B*58:01,≤ 4.70
AEGSRGGSQA,pKd,HLA-B*18:01; [7],≤ 4.15
same,pKd,HLA-B*40:01 [4]; [7],≤ 4.55
same,pKd,HLA-B*40:02; [7],4.73
same,pKd,HLA-B*44:02 [5]; [7],5.07
same,pKd,HLA-B*44:03; [7],4.84
same,pKd,HLA-B*45:01; [7],6.69
AEVVKLPSRY,pKd,HLA-B*18:01; [7],5.30
same,pKd,HLA-B*40:01 [4]; [7],4.82
same,pKd,HLA-B*40:02; [7],≤ 4.65
same,pKd,HLA-B*44:02 [5]; [7],6.84
same,pKd,HLA-B*44:03; [7],7.12
same,pKd,HLA-B*45:01; [7],5.01
CIYRRFKYGLK,pKd,HLA-A*03:01 [6],8.25
DEDDSEPVL,pKd,HLA-B*18:01; [7],5.28
same,pKd,HLA-B*40:01 [4]; [7],6.86
same,pKd,HLA-B*40:02; [7],5.50
same,pKd,HLA-B*44:02 [5]; [7],≤ 4.42
same,pKd,HLA-B*44:03; [7],4.80
same,pKd,HLA-B*45:01; [7],4.75
DESALNISGY,pKd,HLA-B*18:01; [8],7.65
same,pKd,HLA-B*40:01 [4]; [8],≤ 4.16
same,pKd,HLA-B*40:02; [8],≤ 4.53
same,pKd,HLA-B*44:02 [5]; [8],4.96
same,pKd,HLA-B*44:03; [8],5.47
same,pKd,HLA-B*45:01; [8],≤ 4.15
EDFLLMYEM,pKd,HLA-B*18:01; [8],7.04
same,pKd,HLA-B*40:01 [4]; [8],4.77
same,pKd,HLA-B*40:02; [8],8.25
same,pKd,HLA-B*44:02 [5]; [8],6.24
same,pKd,HLA-B*44:03; [8],5.59
same,pKd,HLA-B*45:01; [8],5.33
EDQLLPFMS,pKd,HLA-B*18:01; [9],≤ 4.26
same,pKd,HLA-B*40:01 [4]; [9],≤ 4.23
same,pKd,HLA-B*40:02; [9],≤ 4.18
same,pKd,HLA-B*44:02 [5]; [9],≤ 4.45
same,pKd,HLA-B*44:03; [9],≤ 4.11
same,pKd,HLA-B*45:01; [9],5.43
